The values that follow come from patent publication US20240376221A1 (Genmab, published 2024).

Assay [1] has as its target T1, human OX40, cell surface-expressed (human, UniProt P43489 29-277).
T1 construct: also called CD134; TNFRSF4
T1 sequence: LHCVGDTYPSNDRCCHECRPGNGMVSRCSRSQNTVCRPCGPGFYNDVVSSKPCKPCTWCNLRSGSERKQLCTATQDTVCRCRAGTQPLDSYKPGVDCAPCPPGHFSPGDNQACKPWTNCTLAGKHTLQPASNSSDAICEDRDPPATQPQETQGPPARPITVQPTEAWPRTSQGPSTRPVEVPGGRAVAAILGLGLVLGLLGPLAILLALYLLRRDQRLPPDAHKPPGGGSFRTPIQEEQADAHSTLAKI
The assay is described as follows: flow cytometry, ExpiCHO-S cells with human OX40. How it is done: (§1) The four shuffle constructs, as well as wild-type human and mouse OX40 were transiently expressed on ExpiCHO-S cells using the ExpiFectamine™ CHO Transfection Kit (ThermoFisher, cat. no. A29131), according to the manufacturer's protocol. […] Next, cells were washed twice in FACS buffer 1, were resuspended in a 30 μL solution of viability marker ToPro-3 (Invitrogen, cat. no. T3605, diluted 1:10,000) in FACS buffer 1 supplemented with 2 mM EDTA, and were analyzed on an iQue Screener Plus (Intellicyt Corporation, USA). Data were analyzed using FlowJo software and visualized using GraphPad Prism.
(In general: In flow cytometry, cells or beads pass a laser one at a time.)

Assay [2] deals with T2, cynomolgus monkey OX40, cell surface-expressed (cynomolgus monkey, UniProt P43489 29-277 (human entry)).
T2 construct: full-length, on transfected HEK293F cells
T2 chain: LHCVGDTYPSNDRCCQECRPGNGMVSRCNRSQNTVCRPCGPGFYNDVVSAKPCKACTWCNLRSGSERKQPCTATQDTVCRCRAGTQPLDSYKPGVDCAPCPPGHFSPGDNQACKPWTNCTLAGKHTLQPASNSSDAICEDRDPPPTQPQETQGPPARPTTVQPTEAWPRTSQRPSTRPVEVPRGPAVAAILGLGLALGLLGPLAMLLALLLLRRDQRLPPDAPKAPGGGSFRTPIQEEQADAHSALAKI
The assay is described as follows: flow cytometry, HEK293F cells with cynomolgus monkey OX40. As for the experimental part:
Transfected cells were seeded in 96-well plates (30,000 cells/well; ThermoFisher, cat. no. 163320) for sequential incubations, with washing steps in between using fluorescence-activated cell sorting (FACS) buffer 1 (phosphate buffered saline [PBS; Lonza, cat. no. BE17-517Q] supplemented with 0.1% bovine serum albumin [BSA; Roche, cat. no. 10735086001] and 0.02% sodium azide [NaN₃; Bio-World, cat. no. 41920044-3]) supplemented with 2 mM ethylenediaminetetraacetic acid (EDTA; Sigma-Aldrich, cat. no. 03690). […] Cells were then washed using EDTA-supplemented FACS buffer 1, resuspended in a 30 μL solution of viability marker ToPro-3 (Invitrogen, cat. no. T3605, diluted 1:10,000) in EDTA-supplemented FACS buffer 1, and subsequently analyzed on an iQue® 3 flow cytometer (Satorius). Data were analyzed using FlowJo software and were visualized using GraphPad Prism.

The target of assay [3] is T3, human OX40 with mouse CRD2 (human with mouse CRD2, UniProt P43489 29-277).
T3 construct: on transfected ExpiCHO-S cells; also called Shuffle 2; OX40-CRD2mm
T3 chain: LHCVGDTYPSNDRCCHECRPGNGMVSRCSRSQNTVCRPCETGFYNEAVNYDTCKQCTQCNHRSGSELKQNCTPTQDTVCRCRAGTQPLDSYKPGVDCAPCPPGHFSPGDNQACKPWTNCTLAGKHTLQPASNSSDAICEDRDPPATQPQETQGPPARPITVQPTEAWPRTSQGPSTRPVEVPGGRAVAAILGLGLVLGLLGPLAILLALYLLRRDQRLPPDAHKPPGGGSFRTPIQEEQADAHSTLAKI
As to the kind of experiment: flow cytometry, ExpiCHO-S cells with human OX40 carrying mouse CRD2. As for the experimental part: as §1

Assay [4] concerns the target T4, human OX40 with mouse CRD3 (human with mouse CRD3, UniProt P43489 29-277).
T4 construct: on transfected ExpiCHO-S cells; also called Shuffle 3; OX40-CRD3mm
T4 chain: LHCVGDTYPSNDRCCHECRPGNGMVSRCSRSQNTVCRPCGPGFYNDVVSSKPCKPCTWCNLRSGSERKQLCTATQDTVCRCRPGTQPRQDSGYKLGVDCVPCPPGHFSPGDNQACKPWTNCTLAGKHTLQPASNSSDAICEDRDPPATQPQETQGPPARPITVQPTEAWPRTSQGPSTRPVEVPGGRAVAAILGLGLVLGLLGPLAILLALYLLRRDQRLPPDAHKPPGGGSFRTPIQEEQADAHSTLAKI
The assay is described as follows: flow cytometry, ExpiCHO-S cells with human OX40 carrying mouse CRD3. As for the experimental part: as §1

In assay [5] the target is T5, human OX40 with mouse CRD4 (human with mouse CRD4, UniProt P43489 29-277).
T5 construct: on transfected ExpiCHO-S cells; also called Shuffle 4; OX40-CRD4mm
T5 chain: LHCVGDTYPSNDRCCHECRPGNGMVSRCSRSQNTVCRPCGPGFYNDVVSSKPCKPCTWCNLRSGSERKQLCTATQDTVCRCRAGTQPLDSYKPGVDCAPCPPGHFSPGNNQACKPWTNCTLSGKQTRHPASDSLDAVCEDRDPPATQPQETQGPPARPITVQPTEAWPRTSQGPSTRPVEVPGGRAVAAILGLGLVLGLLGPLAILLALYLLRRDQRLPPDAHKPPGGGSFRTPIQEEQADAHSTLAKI
As to the kind of experiment: flow cytometry, ExpiCHO-S cells with human OX40 carrying mouse CRD4. How it is done:
(§2) Data shown are the geometric mean of the fluorescence intensity (gMFI) from one representative experiment out of two experiments performed.
as §1

The target in assay [6] is T6, human OX40 with mouse CRD1 (human with mouse CRD1, UniProt P43489 29-277).
T6 construct: on transfected ExpiCHO-S cells; also called Shuffle 1; OX40-CRD1mm
T6 chain: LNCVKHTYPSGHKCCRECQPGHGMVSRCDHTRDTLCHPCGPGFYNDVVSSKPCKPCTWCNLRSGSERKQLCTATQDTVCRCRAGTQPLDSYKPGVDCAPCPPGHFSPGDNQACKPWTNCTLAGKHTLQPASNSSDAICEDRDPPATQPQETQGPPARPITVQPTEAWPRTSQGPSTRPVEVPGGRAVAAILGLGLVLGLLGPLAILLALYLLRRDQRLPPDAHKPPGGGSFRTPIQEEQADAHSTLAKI
The assay is described as follows: flow cytometry, ExpiCHO-S cells with human OX40 carrying mouse CRD1. How it is done: as §2, §1

B1: IgG1-CD134-012-RR-K409R (antibody)
heavy: QSLEESGGRLVTPGTPLTLICTVSGIDLSSGAMGWVRQAPGKGLEYIGYIYTGSGTTSYASWVNGRFTISMTSTTVDLKITSPTTEDTATYFCARDAASSYWGHFTLWGQGTLVTVSSASTKGPSVFPLAPSSKSTSGGTAALGCLVKDYFPEPVTVSWNSGALTSGVHTFPAVLQSSGLYSLSSVVTVPSSSLGTQTYICNVNHKPSNTKVDKRVEPKSCDKTHTCPPCPAPELLGGPSVFLFPPKPKDTLMISRTPEVTCVVVDVSHEDPEVKFNWYVDGVEVHNAKTKPREEQYNSTYRVVSVLTVLHQDWLNGKEYKCKVSNKALRAPIEKTISKAKGQPRRPQVYTLPPSREEMTKNQVSLTCLVKGFYPSDIAVEWESNGQPENNYKTTPPVLDSDGSFFLYSRLTVDKSRWQQGNVFSCSVMHEALHNHYTQKSLSLSPG
light: DIVMTQTPASVEAAVGGTVTIKCQASENIYSSLAWYQQKPGQPPKLLIYRTSTLASGVPSRFKGSGSGTQFTLTISDLESDDAATYYCQSYYHNSGGGYDYGFGGGTEVVAKRTVAAPSVFIFPPSDEQLKSGTASVVCLLNNFYPREAKVQWKVDNALQSGNSQESVTEQDSKDSTYSLSSTLTLSKADYEKHKVYACEVTHQGLSSPVTKSFNRGEC
notes: chimeric 012; also called IgG1-CD134-012-P329R-E345R-K409R
Regarding B1, the EC50 (read off the curve) – broadly, the concentration giving half of the maximal effect – in assay [1] was approximately 0.06 µg/mL; in assay [2] it was approximately 0.05 µg/mL; in assay [3], approximately 0.1 µg/mL; in assay [4], approximately 0.1 µg/mL; in assay [5], approximately 0.1 µg/mL.

B2: IgG1-CD134-007-RR (antibody)
heavy: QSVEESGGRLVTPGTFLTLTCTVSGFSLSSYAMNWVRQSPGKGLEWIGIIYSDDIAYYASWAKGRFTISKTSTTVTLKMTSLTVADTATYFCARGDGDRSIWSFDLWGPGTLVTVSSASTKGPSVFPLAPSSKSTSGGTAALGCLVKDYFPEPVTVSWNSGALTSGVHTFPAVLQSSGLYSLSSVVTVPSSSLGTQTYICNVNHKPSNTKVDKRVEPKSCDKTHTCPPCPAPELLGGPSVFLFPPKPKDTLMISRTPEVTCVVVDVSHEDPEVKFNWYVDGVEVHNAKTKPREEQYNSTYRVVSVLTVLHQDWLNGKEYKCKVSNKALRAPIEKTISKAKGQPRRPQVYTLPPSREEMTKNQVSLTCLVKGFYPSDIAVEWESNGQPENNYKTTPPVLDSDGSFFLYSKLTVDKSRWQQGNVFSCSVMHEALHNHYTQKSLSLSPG
light: AQVLTQTPSPVSAAVGGTVTISCQSSESVWNNNWLAWYQQKPGQPPNLLIYEASTLASGVSSRFKGSGSGTQFTLTVSEVQSDDAATYYCQGGYYDSSPIWTFGGGTEVVVKRTVAAPSVFIFPPSDEQLKSGTASVVCLLNNFYPREAKVQWKVDNALQSGNSQESVTEQDSKDSTYSLSSTLTLSKADYEKHKVYACEVTHQGLSSPVTKSFNRGEC
notes: chimeric 007 with RR constant region; also called IgG1-CD134-007-P329R-E345R
As to B2, the half-maximal effective concentration (EC50 (read off the curve)) is approximately 0.005 µg/mL in assay [1], approximately 0.005 µg/mL in assay [6], approximately 0.02 µg/mL in assay [4] and approximately 0.009 µg/mL in assay [5].
